The nanobody polyreactivity screen of Harvey et al. (2022)

Experiment: yeast display, Sf9 membrane polyspecificity reagent, FACS + sequencing; frameworks hold sequencing errors
Method in brief: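 Synthetic nanobody libraries on Saccharomyces cerevisiae BJ5465 were galactose-induced for 36–48 hours, stained 1 hour at 4 °C with 10% biotinylated, detergent-solubilized Sf9 membrane reagent and enriched on streptavidin microbeads. FACS then separated cells into low and high (top ~1%) gates by anti-HA (expression) and streptavidin (reagent binding) fluorescence. Genes were colony-PCR amplified, MiSeq 2 × 250 sequenced and CDR-length filtered. A clone's polyreactivity label is that of its gate of origin.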

Sequence | polyreactivity (PSR sort gate)
QVQLVESGGGLVQAGGSLLLICAASGSTFYLNAMGWYRQAPGKERELVAAITGRSGSTYYADSVKVRFTISRDNAKNTVYLQMNSLKPEDTAVYYCAADYSPWRSDFDYWGQGTQVTVSS | low polyreactivity
QVQLVESGGGLVQAGGSLLLSCAAARIIFKYNAMGWYRQAPGKDRELVARITARGGRTNYADSVKGRFTISRDNAKHTVYLQMNSLKPEDTAVYYCAKKLRGWHTIITDYDYWGQGTQVTVSS | low polyreactivity
QVQLVESGGGLVQAGGSLLLSCAASGFIFAGYAMGWYRQAPGKERELVAPISKRGGTTYYADSVKGRFTISRDNAKNTVYLQMNSLKPEDTAVYYCNAKRTYRVVWASSYEYDYWGQGTQVTVSS | high polyreactivity
QVQLVESGGGLVQAGGSLLLSCAASGFTFRYYAMGWYRQAPGTERELVAAISSGGNTRYADSVKGRFTISRDNAKITVYLQLNSLKPEDTAVYYCARRPGAPRESYDYWGQGTQVTVSS | high polyreactivity
QVQLVESGGGLVQAGGSLLLSCAASGRIFDLNAMGWYRQAPGKERELVAAITNTGSTNYADSVKGRFTISRDNAKNTVYLQMNSLKPEDTAVYYCARTYWLRYYGYRDDEYDYWGQGTQVTVSS | low polyreactivity
QVQLVESGGGLVQAGGSLLLSCAASGRIFRSYTMGWYRQAPGKERELVAAITSYGGRTYYADSVKGRFTISRDNAKNTVYLQMNRLKPEDTAVYYCAAHLSRDKFDYWGQGTQVTVSS | low polyreactivity
QVQLVESGGGLVQAGGSLLLSCAASGRIFSYNAMGWYRQAPGKERELVAVISRSDTSTYYADSVKGRFTISRDNAKNTVYLQMNSLKPEDTAVYYCNADGPSYFRYSGYYYWGQGTQVTVSS | low polyreactivity
QVQLVESGGGLVQAGGSLLLSCAASGRIFYRYAMGWYRQAPGKERELVAAISRGGSTYYADSVKGRYTISRDNAKNTVYLQMNSLKPEDTAVYYCAKDGYWGYDYWGQGTQVTVSS | high polyreactivity
QVQLVESGGGLVQAGGSLLLSCAASGRTFRPYSMGWYRQAPGKERELVAAITRSGGSTYYADSVKGRFTISRDNEKNTVYLQMNSLKPEDTAVYYCAAYNTYSDTYDYWGQGTQVTVSS | low polyreactivity
QVQLVESGGGLVQAGGSLLLSCAASGRTLGKYAMGWYRQAPGKERELVAAISSGGGSTYYSDSVKGRFTISRDNAKNTVYLLMNSLKPEDTAVYYCAADSVSRYNGYDYWGQGTQVTVSS | high polyreactivity
QVQLVESGGGLVQAGGSLLLSCAASGSIFIYYTIGWYRQARGKARELVAAITRSGGDTYYADSVKGRFTISRDNAKNTVYLQMNSLKPEDTAVYYCAADSWLRYGTYEYWGQGTQVTVSS | high polyreactivity
QVQLVESGGGLVQAGGSLLLSCAASGSIFRYYAMGWSRQAPGKERELVAAISSNGASTYYADSVKGRFTISRDNAKNTVYLQKNSLKPEVSGVYYCAARFRRAPGYYWGQGTQVTVSS | high polyreactivity
QVQLVESGGGLVQAGGSLLLSCAASGSIFYRYAMGWDRQAPGKERELVAAISWNGGTTYYADSVKGRFTISRDNAKNTVYLQMNSLKPEDTAVYYCAADRPTSVYLFDYWGQGTLVTVSS | high polyreactivity
QVQLVESGGGLVQAGGSLLLSCAASGSIFYYYAMGWYRQAPGKERELVAAISKSGGSTYADSVKGRFTISRDNAKNTVYLQMNSLKPEDTAVYYCAKEFKYWGYPYDYWGQGTQVTVSS | low polyreactivity
QVQLVESGGGLVQAGGSLLLSCAASGSILRMYVMGWYRQAPGKESELVADRSDRGGSTYYADSVKGRFTISRDNAKNTVYLQMNSLKPEDTAVYYCAKDSETAGATYTEYDYWGQGTQVTVSS | low polyreactivity
QVQLVESGGGLVQAGGSLLLSCAASGSTFISYAMGWYRQAPGKERELVAAITWRGGSTYNADSVKGRFTISRDNAKNTVYLQMNSMKPEDTAVYYCAAEFYYYYGRYDYWGQGTQVTVSS | high polyreactivity
QVQLVESGGGLVQAGGSLLLSCAASGTTSLVNAMGSYRQAPGKERELVAAISWSGGSTYYADSVKGRFTISRANAKNTVFLQRNSLKPEDTAVYYCAAESYGYWEYDYWGQGTQVTLSS | high polyreactivity
QVQLVESGGGLVQAGGSLLLSSAASGINFGNYAMGWYRQAPGKERELVATIDSAGSPYYADSVNGRFTISRDNAKNTVYLQMNSLKPEDTAVYYCAVRFGTYGRYFGYDYWGQGTQVTVSS | high polyreactivity
QVQLVESGGGLVQAGGSLLLTCAASGIIFVIYAMGWYRQAPGKERELVAAITSDGSTSYADSVKGRFTISRDNAKNTVYLQMNSLKPEDTAVYYCAKDFFEHSPVSHTYSSSKYDYWGQGTQVTVSS | low polyreactivity
QVQLVESGGGLVQAGGSLPLICAASGSTSVVNAMGWYRQAHGKERELVATIPRVGRTYYADSVKGRFTISRDNAKNTVYLQMNSLKPEDTAVYYCASRLVGRSYKYDYWGQGTQVTVSS | high polyreactivity
QVQLVESGGGLVQAGGSLPLSCAASGFIFYRYTMGWYRQAPGKERELVAAITRNGVSTYYADSVKGRFTISRDNAKNTVYLQMNSLKPEDTAVYYCAAQRYRTGDSWGQGTQVTVSS | high polyreactivity
QVQLVESGGGLVQAGGSLPLSCAASGFTFYRYTMVWYRQAPGKERELVAAISRGGRTYYADSVKGRFTISRDNAKNTDYLQMNSLKPEDTAVYYCNARYPSADDWGQGTQVTVSS | high polyreactivity

Sequence | polyreactivity (PSR sort gate)
QVQLVESGGGLVQAGGSLPLSCAASGIIFPYNAMGWSRQAPGKERELVAAITGGGSTYYADSVKGRFTISRDNAKNTVYLPMNSLKPEDSAVYYCAADGSGPGYDYWGQGTQVTVSS | low polyreactivity
QVQLVESGGGLVQAGGSLPLSCAASGLIINYYVMGWYRQAPGKERELVAANTISGGRSYYADSVKVRFTISRDNAKNTVYLQMKCLNPEDTAVYYCARRFGPYRKGYQSYGIYDYWGQGTHVTVSS | high polyreactivity
QVQLVESGGGLVQAGGSLPLSCAASGRIFWDYDMGRYRQAHGKERELVAVITFSGDSTYYADSVKGRFTISRDNAKNTVYLQMNSLKPEDTAVYYCASARAIRQFWYVATFEYWGQGTQVTVSS | low polyreactivity
QVQLVESGGGLVQAGGSLPLSCAASGSTFGSYAMGWYRQAPGKERELVAAISYSGGSTYYADSVKGRFTISRDNEKNTVFLQMNSLKPEDTAVYYCATVRKYRAMDYWGQGTQVSVSS | high polyreactivity
QVQLVESGGGLVQAGGSLPLSCAASGSTLSGYAMGWYRQAPGKEREMVAAITKSGGRTYYADSVKGRFTISRDNAKNTVYLQMNSLKPEDTAVYYCAKAYPGTYREYDYWGQGTQVTVSS | high polyreactivity
QVQLVESGGGLVQAGGSLPLSCAASRRTLYTNTMGWYRQAPGKESELDAGISKRGGSTYYADSVKGRFTITRDTAKNTVYLQMNSRKPEDTAVYYCNAPVSYWSRFRSPIYEYWGQGTQVTVSS | high polyreactivity
QVQLVESGGGLVQAGGSLPLSCAATGRTFSYNAMGSYRQAPAKETELVAAISSGGTTNYADSVKGRFTISRDNAKNTVYLQMNSVKPDDTAVYYCNADRLVWSFTDYGFSQYDYWGQGTQVTVSS | low polyreactivity
QVQLVESGGGLVQAGGSLRFICAASGGISSSNAMGWYRQAHGKERELVAGINSRGGSTYADSVKGRFTISRANAKNTVYLQMNSLKPEDTAVYYCAAAPTYKWRRKNYDYWGQGTQVTVAS | high polyreactivity
QVQLVESGGGLVQAGGSLRFRCAASGFTFGHYAIVWYRQAPGKERELVAAISKSGTRTYYADSVKGRFTISRDNAKNTVYLQMTSLKPEDTAVYYCATTAYNGYDYWGQGTQVTVSS | high polyreactivity
QVQLVESGGGLVQAGGSLRFSCAASGFIFRDNAMVWYRRAPGKERELVAAISYSGGSTYYADSVKGRFTISRDNAKNTVYLQMNSVKPEDTAVYYCAASYGPKRRGYWGQGTQVTVSS | high polyreactivity
QVQLVESGGGLVQAGGSLRFSCAASGFTFSVYAMGWYRQAPGTEMELVAAIHWSGGSTYYADSVKGRFTISRDNAKNTVYLQMNSLKPEDTAVYYCNTLYWYTRHVVDYWGQGTQVTVSS | high polyreactivity
QVQLVESGGGLVQAGGSLRFSCAASGGIFWYNAMGWYRQAPGKERELVAAISASTGSTYYADSVKGRFTISRDNAKNTVYLQMNSLKPEDTAVYYCAATRYRSARYAYGHWGQGTQVTVSS | high polyreactivity
QVQLVESGGGLVQAGGSLRFSCAASGGTFQGNAMGWYRQAPGKEREFVATITRGGGSTYYADSVKGRFTISRDNAKNTVYLQMNSLKPEDTAVYYCNAKPSYYQRYNYWGQGTQVTVSS | high polyreactivity
QVQLVESGGGLVQAGGSLRFSCAASGINIWTNVMGWYIQAPRKESEFVAAISRSGGSTYYADSVKGSFTISRDNAKNTVYLQMISLKPEDTAVYYCAARWSYSVQKFDYWGQGTQLTVSS | high polyreactivity
QVQLVESGGGLVQAGGSLRFSCAASGRIFGGNTMGWYRQAPGKERELVATIRSGDSTYYADSVKGRFTISRDNAKNTVYLQMNSLKPEDTAVYYCGYDYWGQGTQVTVSS | low polyreactivity
QVQLVESGGGLVQAGGSLRFSCAASGRTFVPYAMGWYRQAPGKERELVARIDSSGGSTYYADSVKGRFTISRDNAKNTVYLQMNSLKPEDTAVYYCAAVFYYWSLRSYYWGQGTQVTVSS | high polyreactivity
QVQLVESGGGLVQAGGSLRFSCAASGRTIWTYVMGWYRQAPGKERELVAAISRSGSSTYYADSVKGRFTISRDNAKNTVYLQMNSLKPEDTAVYYCNKVDGTTLDDHYMDYWGQGTQVTVAS | low polyreactivity
QVQLVESGGGLVQAGGSLRFSCAASGSIFITYAMGWYRQAPGKERELVAAISRSGGSTYYADSVKGRFTISRDNAKNTVYLQMNSLKPEDTAVYYCAAYPYSAGRYYYWGQGTQVTVSS | high polyreactivity
QVQLVESGGGLVQAGGSLRFSCAASGSIFSSYAMGWYRQAPGKERELVAAISSSGDSTYADSVKGRFTISRDNAKNTVYLQMNSLKPEDTAVYYCAVGGAGSDDYWGQGTQVTVSS | low polyreactivity
QVQLVESGGGLVQAGGSLRFSCAASGSIFYRNAMGWDRQAPGKEREMVAAISASSGRTYYADSVKGRFTISRDNAKNTVYLQMNSLKPEDTAVYYCAVRPYRSAGGSVTRGAYYYWGQGTQVTVSS | high polyreactivity
QVQLVESGGGLVQAGGSLRFSCAASGSTFAYNDMGWYRQAPGKERELVADIRSGGNTNYADSVKGRFTISRDNAKNTVYFQMNSLKPEDTAVYYCATDGYRIDVYHPDYRYDYWGQGTQVTVSS | low polyreactivity
